Assay results as given in US9574016B2, “Complex of bi-specific antibody and digoxigenin conjugated to a therapeutic or diagnostic agent” (Hoffmann-La Roche Inc., priority 2009, dated 2017).
Where “and” joins values, the source holds several entries; their conditions need not be identical. Identical values can stand only once. Non-standard residues stand in square brackets, D forms with d. Residues, ends and D or L forms follow the SMILES beside them. No end group written: not given here. PEG3 = NCCOCCOCCOCCC(=O)O

What was measured:
[1] = Excitation and emission spectra; assay type: physicochemical
Text: To evaluate whether digoxygenation of Cy5 alters its fluorescence features, we compared the excitation and emission spectra of Cy5 and compared it with the spectra of the newly generated Dig-Cy5 and with Dig-Cy5 within a complex with bispecific antibodies. […] We conclude that Dig-Cy5 and —complexes can be applied for antibody-mediated targeting and in vivo imaging.

[2] = test system: IGF1R expressing tumors (H322M cells); test: NIRF tumor imaging with Dig-Cy5 complexes, H322M xenograft; assay type: in vivo, mice; settings: 30 min, i.v.
Protocol: To analyze if the specific antigen binding functionality of the antibody-complexes can be utilized to specifically deliver imaging reagents to tumor cells, we performed Near Infrared Fluorescence Imaging Studies (NIRF) in vivo. […] These xenografts were either expressing the antigen Her2 (KPL4 cells) or the antigen IGF1R (H322M cells). Subsequently NIRF imaging was performed by using the Maestro system from CRI. Animals were placed in a measuring chamber and the fluorescence was measured over a defined spectral wavelength array, depending on the dye. Spectral information of each pixel of the obtained image was analyzed by a special software which allows to separate different pre-defined spectra, e.g. autoflourescence and the signal of the dye. Theses separated specific signals were quantified by the Maestro software in order to compare different samples.

[3] = test system: CD22 positive Raji and Ramos cells; test: FACS analysis with <CD22>-<DIG> and DIG-Cy5; assay type: cell-based; settings: DIG-Cy5 66.4 nM
Protocol: For these analyses we used CD22 positive Raji and Ramos cells and the bispecific <CD22>-<DIG> antibody. 3×10^5 cells per well of a 96-well-plate were incubated with 5 ng/ml of the <CD22>-<DIG> antibody in FACS buffer (PBS containing 5% FCS). After washing the cells were incubated with DIG-Cy5 in a final concentration of 66.4 nM. After another washing step cells were analysed with the FACS canto II (BD Biosciences).

[4] = test system: H322M (low surface Her2) and KPL4 (high surface Her2) cells; test: CytoTox-Glo assay of DIG-peptide-<Her2>-<Dig> complexes; assay type: cell-based, human; settings: 48 hours
Text: To analyze whether the <Her2>-<Dig>-Dig-Peptide complexes, and <IGF1R>-<Dig>-Dig-Peptide complexes mediate specific targeting of their payload towards antigen expressing cells, we made use of the fact that the FALLv1 and Fam5b peptides are cytotoxic. […] To measure the number of dead cells, the CytoTox-Glo assay (Promega Madison, Wis.) was used. To analyze the specificity of the targeting, two cell lines were used: H322M which have low levels of surface Her2 and KPL4 which have high levels of surface Her2.
For these assays, H322M cells were seeded at a density of 15.000 cells per well in 96 well plates. The cells were incubated for 24 hours at 37° C., 5% CO2 and 85% humidity in RPMI with 10% FCS, Na+Pyrovate, L-Glutamine and NEAA mix. KPL4 cells were seeded at a density of 7.000 cells per well in 96 well plates. The cells were incubated for 24 hours at 37° C., 5% CO2 and 85% humidity in RPMI with 10% FCS, and L-Glutamine. […] The cells were incubated for further 48 hours. After this period, the cells were treated with the CytoTox-Glo-assay reagent according to the manufacturers instructions. In brief, this assay detects dead cells via the presence of a protease in the medium that cleaves a flurogenic peptide in the reagent. The luminescence of this assay therefore represents dead cells. The 96 well plates were then analyzed in a InfiniteF200 luminescence reader (Tecan Austria, Gröding).

[5] = biological target: siRNA-DIG (Eg5-siRNA-DIG); test: SPR (Biacore) binding to mono-digoxygenated siRNA; settings: 25° C.
Protocol: (§2) For that, binding properties of the recombinant <Dig> derivatives were analyzed by surface plasmon resonance (SPR) technology using a Biacore T100 or Biacore 3000 instrument (GE Healthcare Bio-Sciences AB, Uppsala). […] It allows a continuous real-time monitoring of ligand/analyte bindings and thus the determination of association rate constants (ka), dissociation rate constants (kd), and equilibrium constants (KD) in various assay settings. SPR-technology is based on the measurement of the refractive index close to the surface of a gold coated biosensor chip. Changes in the refractive index indicate mass changes on the surface caused by the interaction of immobilized ligand with analyte injected in solution. If molecules bind to immobilized ligand on the surface the mass increases, in case of dissociation the mass decreases. To perform the binding studies capturing anti-human IgG antibody was immobilized on the surface of a CM5 biosensor chip using amine-coupling chemistry. […]
(§3) Anti-mouse IgG antibody was immobilized on the surface of a CM5 biosensor chip in the same fashion as described above. […] The samples to be analyzed were diluted in HBS-P (10 mM HEPES, pH 7.4, 150 mM NaCl, 0.005% Surfactant P20) and injected at a flow rate of 5 μl/min. […] Signals were detected at a rate of one signal per second.
(§4) The samples to be analyzed were diluted in HBS-P and injected at a flow rate of 5 μl/min. […]

[6] = biological target: siRNA-(2x)DIG (Eg5-siRNA-(2×)DIG); test: SPR (Biacore) binding to bi-digoxygenated siRNA; settings: 25° C.
Protocol: as §2, §3, §4

DIG-Myoglobin = test: SPR study, binding to DIG-myoglobin
Protocol: (§1) For that, binding properties of the recombinant <Dig> derivatives were analyzed by surface plasmon resonance (SPR) technology using a Biacore T100 or Biacore 3000 instrument (GE Healthcare Bio-Sciences AB, Uppsala). This system is well established for the study of molecule interactions. It allows a continuous real-time monitoring of ligand/analyte bindings and thus the determination of association rate constants (ka), dissociation rate constants (kd), and equilibrium constants (KD) in various assay settings. SPR-technology is based on the measurement of the refractive index close to the surface of a gold coated biosensor chip. Changes in the refractive index indicate mass changes on the surface caused by the interaction of immobilized ligand with analyte injected in solution. If molecules bind to immobilized ligand on the surface the mass increases, in case of dissociation the mass decreases. To perform the binding studies capturing anti-human IgG antibody was immobilized on the surface of a CM5 biosensor chip using amine-coupling chemistry. Flow cells were activated with a 1:1 mixture of 0.1 M N-hydroxysuccinimide and 0.1 M 3-(N,N-dimethylamino)propyl-N-ethylcarbodiimide at a flow rate of 5 μl/min. […] A reference control flow cell was treated in the same way but with vehicle buffers only instead of the capturing antibody. Surfaces were blocked with an injection of 1 M ethanolamine/HCl pH 8.5. To compare the binding of the humanized protein variants with that of the murine <Dig> IgG from the original hybridoma 19-11, capturing anti-mouse IgG antibody was immobilized on the surface of a CM5 biosensor chip in the same fashion as described above for the anti-human IgG antibody. To evaluate the functionality of the recombinant <Dig> derivatives, binding of the recombinant hu<Dig> modules, incl. […]

DIG-siRNA2349 = test: SPR study, binding to DIG-siRNA2349; settings: analyte DIG-siRNA2349; listed as <DIG>M-19-11
Protocol: as §1, with “antibody.” for “antibody. Surfaces were blocked with an injection of 1 M ethanolamine/HCl pH 8.5. To compare the binding of the humanized protein variants with that of the murine <Dig> IgG from the original hybridoma 19-11, capturing anti-mouse IgG antibody was immobilized on the surface of a CM5 biosensor chip in the same fashion as described above for the anti-human IgG antibody. To evaluate the functionality of the recombinant <Dig> derivatives, binding of the recombinant hu<Dig> modules, incl.”

[7] = analyte DIG-Myoglobin, listed as <DIG>M-19-11

Q: For `CCN1c2ccc(S(=O)(=O)O)cc2C(C)(C)C1/C=C/C=C/C=C1\N(CCCCCC(=O)NCCNC(=O)CO[C@H]2CC[C@@]3(C)[C@H](CC[C@@H]4[C@@H]3C[C@@H](O)[C@]3(C)[C@@H](C5=CC(=O)OC5)CC[C@]43O)C2)c2ccc(S(=O)(=O)O)cc2C1(C)C` (stereo partly drawn) [Dig-Cy5], which “Emission wavelength (max.)” value [1] is on record?
A: 670 nm

Q: And the “tumor visualization by NIRF” value [2]?
A: no tumor specific fluorescence

Q: What about the “binding to Raji or Ramos cells (FACS)” value [3] of the same molecule?
A: hardly any binding

Q: For `CC[C@H](C)[C@H](NC(=O)[C@H](CCCCN)NC(=O)[C@H](CCC(=O)O)NC(=O)[C@H](CCCCN)NC(=O)[C@H](CO)NC(=O)[C@H](CCCCN)NC(=O)[C@H](CCCNC(=N)N)NC(=O)[C@H](Cc1ccccc1)NC(=O)[C@H](Cc1ccccc1)NC(=O)[C@H](CC(=O)O)NC(=O)CNC(=O)[C@H](CC(C)C)NC(=O)[C@H](CC(C)C)NC(=O)[C@H](C)NC(=O)[C@H](Cc1ccccc1)NC(=O)[C@@H](N)CSC1CC(=O)N(CCNC(=O)CO[C@H]2CC[C@@]3(C)[C@H](CC[C@@H]4[C@@H]3C[C@@H](O)[C@]3(C)[C@@H](C5=CC(=O)OC5)CC[C@]43O)C2)C1=O)C(=O)NCC(=O)N[C@@H](CCCCN)C(=O)N[C@@H](CCC(=O)O)C(=O)N[C@@H](Cc1ccccc1)C(=O)N[C@@H](CCCCN)C(=O)N[C@@H](CCCNC(=N)N)C(=O)N[C@H](C(=O)N[C@H](C(=O)N[C@@H](CCC(N)=O)C(=O)N[C@@H](CCCNC(=N)N)C(=O)N[C@H](C(=O)N[C@@H](CCCCN)C(=O)N[C@@H](CC(=O)O)C(=O)N[C@@H](Cc1ccccc1)C(=O)N[C@@H](CC(C)C)C(=O)N[C@@H](CCCNC(=N)N)C(=O)N[C@@H](CC(N)=O)C(=O)N[C@@H](CC(C)C)C(=O)N[C@H](C(=O)N1CCC[C@H]1C(=O)N[C@@H](CCCNC(=N)N)C(=O)N[C@H](C(=O)N[C@@H](CCC(=O)O)C(=O)N[C@@H](CO)C(N)=O)[C@@H](C)O)C(C)C)[C@@H](C)CC)C(C)C)[C@@H](C)CC` (stereo partly drawn) [Dig-FALLv1], which “cytotoxicity when delivered by the <Her2>-<Dig> bispecific antibody, H322M compared to KPL4” value [4] is on record?
A: more toxic to cells expressing higher levels of surface antigen

Q: For `CC[C@H](C)[C@H](NC(=O)[C@H](CCCCN)NC(=O)[C@H](CCC(=O)O)NC(=O)[C@H](CCCCN)NC(=O)[C@H](CO)NC(=O)[C@H](CCCCN)NC(=O)[C@H](CCCNC(=N)N)NC(=O)[C@H](Cc1ccccc1)NC(=O)[C@H](Cc1ccccc1)NC(=O)[C@H](CC(=O)O)NC(=O)CNC(=O)[C@H](CC(C)C)NC(=O)[C@H](CC(C)C)NC(=O)[C@H](C)NC(=O)[C@@H](N)Cc1ccccc1)C(=O)NCC(=O)N[C@@H](CCCCN)C(=O)N[C@@H](CCC(=O)O)C(=O)N[C@@H](Cc1ccccc1)C(=O)N[C@@H](CCCCN)C(=O)N[C@@H](CCCNC(=N)N)C(=O)N[C@H](C(=O)N[C@H](C(=O)N[C@@H](CCC(N)=O)C(=O)N[C@@H](CCCNC(=N)N)C(=O)N[C@H](C(=O)N[C@@H](CCCCN)C(=O)N[C@@H](CC(=O)O)C(=O)N[C@@H](Cc1ccccc1)C(=O)N[C@@H](CC(C)C)C(=O)N[C@@H](CCCNC(=N)N)C(=O)N[C@@H](CC(N)=O)C(=O)N[C@@H](CC(C)C)C(=O)N[C@H](C(=O)N1CCC[C@H]1C(=O)N[C@@H](CCCNC(=N)N)C(=O)N[C@H](C(=O)N[C@@H](CCC(=O)O)C(=O)N[C@@H](CO)C(N)=O)[C@@H](C)O)C(C)C)[C@@H](C)CC)C(C)C)[C@@H](C)CC` [FALLv1], which “cytotoxicity of the <Her2>-<Dig> complex towards antigen expressing target cells compared to non-complexed peptide” value [4] is on record?
A: higher

Q: For `CC[C@H](C)[C@H](NC(=O)[C@H](CCCNC(=N)N)NC(=O)[C@H](Cc1c[nH]cn1)NC(=O)[C@@H](NC(=O)[C@H](CCCCN)NC(=O)[C@H](CCCCN)NC(=O)[C@H](Cc1ccccc1)NC(=O)[C@H](CC(C)C)NC(=O)[C@@H](NC(=O)[C@H](CCCCN)NC(=O)[C@H](CC(C)C)NC(=O)CNC(=O)[C@H](C)NC(=O)CNC(=O)[C@H](CC(C)C)NC(=O)[C@H](CCC(N)=O)NC(=O)[C@H](CCC(N)=O)NC(=O)[C@H](Cc1ccc(O)cc1)NC(=O)[C@H](CCCNC(=N)N)NC(=O)[C@H](Cc1c[nH]cn1)NC(=O)[C@@H](N)CCC(N)=O)C(C)C)[C@@H](C)O)C(=O)N[C@@H](CC(C)C)C(=O)N[C@@H](CCCNC(=N)N)C(=O)N[C@@H](CCCNC(=N)N)C(=O)N[C@@H](CC(C)C)C(=O)N[C@@H](Cc1ccccc1)C(=O)N[C@@H](CC(N)=O)C(=O)N[C@@H](CC(C)C)C(=O)N[C@@H](C)C(=O)N[C@@H](CCCCN)C(=O)O` [Fam5b] (H-QHRYQQLGAGLKVLFKKTHRILRRLFNLAK-OH), which “cytotoxicity of the <Her2>-<Dig> complex towards antigen expressing target cells compared to non-complexed peptide” value [4] is on record?
A: higher

Q: Which “Emission wavelength (max.)” value [1] does the source give for Cy5 [reference compound] here?
A: 670 nm

Q: Which “cytotoxicity when delivered by the <Her2>-<Dig> bispecific antibody, H322M compared to KPL4” value [4] does the source give for “DIG-Fam5b: digoxigenin conjugate of Fam5b with TEG-spacer and amino-terminal cystein (C[PEG3]QHRYQQLGAGLKVLFKKTHRILRRLFNLAK; also: digoxigenin conjugate, attachment site not given here)” here?
A: correlates with the levels of surface antigen

B1: murine DIG-IgG 19-11: murine <Dig> IgG1 kappa from mouse hybridoma clone 19-11; VL Seq. ID. NO. 1, VH Seq. ID. NO. 2 (antibody, listed as Mus musculus, V domains shown)
VH: MNFVLSLIFLALILKGVQCEVQLVESGGGLVKPGGSLKLSCAVSGFTFSDYAMSWIRQTPENRLEWVASINIGATYAYYPDSVKGRFTISRDNAKNTLFLQMSSLGSEDTAMYYCARPGSPYEYDKAYYSMAYWGPGTSVTVSS
VL: MSSAQFLGLLLLCFQGTRCDVQMTQSTSSLSASLGDRVTISCRASQDIKNYLNWYQQKPGGTVKLLIYYSSTLLSGVPSRFSGRGSGTDFSLTITNLEREDIATYFCQQSITLPPTFGGGTKLEIK
notes: murine <Dig> IgG1 kappa from mouse hybridoma clone 19-11; ID; NO
Q: Which results are given for B1?
A: Kd [5]: 0.269 nM; Kd [6]: 0.017 nM; affinity to DIG-myoglobin relative to <DIG>-hu2 and disulfide-stabilized <DIG> scFv (DIG-Myoglobin): about a hundred fold better; ka (DIG-Myoglobin; [7]): 1.75e+06 M⁻¹ s⁻¹ and 2.28e+06 M⁻¹ s⁻¹; kd (DIG-Myoglobin; [7]): 0.000676 s⁻¹ and 0.000675 s⁻¹; ka (DIG-siRNA2349): 3.27e+06 M⁻¹ s⁻¹ and 2.26e+06 M⁻¹ s⁻¹; kd (DIG-siRNA2349): 0.000903 s⁻¹ and 0.000838 s⁻¹
